# Measured values reported in the nanobody polyreactivity screen of Harvey et al. (2022).
# Assay: yeast display, Sf9 membrane polyspecificity reagent, FACS + sequencing; frameworks hold sequencing errors
# Method in brief: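 Galactose induction of a Saccharomyces cerevisiae BJ5465 synthetic nanobody display library ran 36–48 hours. The cells were then stained for 1 hour at 4 °C with 10% biotinylated, detergent-solubilized Sf9 membrane reagent, pulled down on streptavidin microbeads and FACS-sorted into low and high (top ~1%) gates on expression and reagent-binding fluorescence. Labels for polyreactivity follow the gate of origin.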
row,Sequence,polyreactivity (PSR sort gate)
1,QVQLVESGGGLVQAGGSLRLSWAASGFTFKYYDMGWYRLAPGQERELVAAIDTSGGNTYYADSVKGRFTISRDNAKNTGYVQMNSLKPEETAVDYCAATVPYYHDDYWGQGTQVTVSS,low polyreactivity
2,QVQLVESGGGLVQAGGSLRLSWAASGITLHGYAMGWYRQAPGKERELVAAITGSGGRTYYADSVKGRFTISRDNAKNTVYLQMNSLKPEDTAVYYCNAGAVYWGYSRGWYERDYWGQGTQVTVSS,high polyreactivity
3,QVQLVESGGGLVQAGGSLRLSWAASGRIFIGYPMGWYRQAPGKERELVAAISRNGDNTYYADSVKGRFTISRDNAKNTVYLQMNSLKPEDSAVYYCAAVAYPREWKLSYEDGSWGYDYWGQGTQVTVSS,low polyreactivity
4,QVQLVESGGGLVQAGGSLRLSWAASGRIFYFYAMGWYRQAPGKERELVASISSGGITNYADSVKGRFTISRDNAKNTVYLQMNSLKPEDTAVYYCNAGYASGKYSGGYLYGYWGQGTQVTVSS,low polyreactivity
5,QVQLVESGGGLVQAGGSLRLSWAASGSIFFFNAMGWYRQAPGKEREFVAAITSSSGRTYYADSVKGRFTISRDNAKNTVYLQMNRLKPEDTAVYYCAAQVPEDTETVDYWGQGTQVTVSS,low polyreactivity
6,QVQLVESGGGLVQAGGSLRLSWAASGSIFQVYAMGWYRQAPGKEREFVAAISYSGGGTYYADSVKGRFTISRDNAKNTVYLQMNSLKPEDTAVYYCAADVSGWEYDYWGQGTQVTVSS,low polyreactivity
7,QVQLVESGGGLVQAGGSLRLSWAASGSTFEYNVMGWYRQAPGKERELVAAITQGDGGSTYYADSVKGRFTISRDNAKKTVYLQKNSLIPEDTAVYYCNAGYFTEYNSWGQGTEVTVSS,high polyreactivity
8,QVQLVESGGGLVQAGGSLRLSYAASGSTFFFNALGWYRQAPGKERELVATISRDGSTNYADSVKGRFTISRDNAKNTVYLQINSLKPEDTAVYYCAAGWGWPYHQYDYWGQGTQVTVSS,low polyreactivity
9,QVQLVESGGGLVQAGGSLRLTCAASARTFVGNAMGWYRQAPGKERELVAVITGSGARTYYADSVKGRFTISRDNAKNTVYLQMNSLKPEDTAVYYCAGSGYSGQYRSYYWGQGTQVTVSS,high polyreactivity
10,QVQLVESGGGLVQAGGSLRLTCAASASIFGSAMGWSRQAPGNEMELVASTTDADSVKGRFTISRDNAKNTVYLQMNSLKPEDTSVYYCAADDWDTVEMEYWGQVTQVTVSS,low polyreactivity
11,QVQLVESGGGLVQAGGSLRLTCAASASTFKPYAMGWDRQAPGKERELVAAINGSGGDTYYADSVKGRFTISRDNAKTTVYLQMNSLKPEDTAVYYCAAQWGYYNYWYGYWGQGSQVTVSS,low polyreactivity
12,QVQLVESGGGLVQAGGSLRLTCAASGAIFDSYAMGWYRQAPGKEWQLVASISYRGGSTYYADSVKGRFTISRDHAKNTVYLQKNSLKPEDTAVYYCAATPGYHYRSWRYYYWGQGTLVTVSS,high polyreactivity
13,QVQLVESGGGLVQAGGSLRLTCAASGFIFKANAMGWYRQAPGKERELVASITFGGDSTYYADSVKGRFTISRDNAKNTVYLHMNSLKPEDTAVYYCNTRRRSYRTYYYWGQGTQVTVLS,low polyreactivity
14,QVQLVESGGGLVQAGGSLRLTCAASGFIFYNNAMGWYRQAPGKERELVASIRWSGASTYYADSVKGRFTISRDNAKNTVYLQMNSLKPEDTAVYYCAARQSRLNSYFSHRFWRYDYWGQGTQVTVSS,high polyreactivity
15,QVQLVESGGGLVQAGGSLRLTCAASGFIFYSYAMGWYRQAPGKERELVAAISTSGGSTYYADSVKGRFTISRDNAKNTVYLQMNSLKPEDTAVYYCAVGRKFGRYRVPFVVPYEYWGQGTQVTVSS,high polyreactivity
16,QVQLVESGGGLVQAGGSLRLTCAASGFTFARYAMGWYRQAPGKERELVAAISSNDNTSYADSVKGRFTISRDNAKNTVYLQMNSLKPEDTAVYDCAKKRYHWYGRYYYWGQGTQLTVSS,high polyreactivity
17,QVQLVESGGGLVQAGGSLRLTCAASGFTFAYKTMGWYRQAPGKERELVAAISWSGGRTYYADSVKGRFTISRDNAKNTVYLQMNSLKPEHTAVYYCAAEFWNQYGAYDYWGQGTQVTLSS,low polyreactivity
18,QVQLVESGGGLVQAGGSLRLTCAASGFTFGPYDMGWSRQAPGKERELVAAITDSSGSTHYADSVKGRFTISRDNAKNTVYLQMNSLKPEDTAVYYCAAQLKSHSTYGHDYWGQGTQVTVSS,low polyreactivity
19,QVQLVESGGGLVQAGGSLRLTCAASGFTFGRYTMGWYRQAPGKERELVAAISGRGSRTYYADSVKGRFTISRDNAKNTVYLQMSSLKPVDTAVYYCAADVNVRSDMDYWGQGTQVTVSS,high polyreactivity
20,QVQLVESGGGLVQAGGSLRLTCAASGFTFGSYAMGWNRQAPGKERELVAVITRSGRTNYADSVKGRFTISRDNAKNTVYLQMNSLKPEDTAVYYCNADDVDDEVSPDLTEMDYWGQGTQVTVSS,low polyreactivity
21,QVQLVESGGGLVQAGGSLRLTCAASGFTFPYYAMGWYRQAPGKERELVAAIDWTGGSTYYADSVKGRFTISRDNAKNTVYLQMNSLKPEDTAVYYCNRELTSPRRWHVSRAYDYWGQGTQVTVSS,low polyreactivity
22,QVQLVESGGGLVQAGGSLRLTCAASGFTFRYYTMGWYRQAPGTERELVARISNRGGSTYYADSVKGRFTISRDNAKNTVYLQMNSLKPEDTAVFYCAAARRYYTYYREDYYYWGQGTQVTVSS,high polyreactivity

row,Sequence,polyreactivity (PSR sort gate)
1,QVQLVESGGGLVQAGGSLRLTCAASGFTFSPNAMGWYRQAPGKERELVAAIDWSGDRTYYADSVKGRFTISRDNAKNTVYLQMNSLKPEDTAVYYCNVVGRSPGDYSYYYSGQGTQVTVSS,low polyreactivity
2,QVQLVESGGGLVQAGGSLRLTCAASGGIFGINAMRWYRQAPGKERELVAAITSGDSTNYADSVKGRFTISRDNAKNTVYLQMNSLKPEDTAVYYCNADPDTYVSTITHDSWGQGTQVTVSS,low polyreactivity
3,QVQLVESGGGLVQAGGSLRLTCAASGGILGYYAMGWYRQEQGKERELVAAISSSVGRTYYADSVKGRFTISRDNAKNSVFLQMNSLKPEDTAVYYCNKDIGRSYNYWGQGTQVTVSS,high polyreactivity
4,QVQLVESGGGLVQAGGSLRLTCAASGIIFDTNAMGWYRQAPGKERELVATITQRGGTTYYADSVKGRFTISRDNAKNTVYLQMNSLKPEDTAVYYCNAGPVRLPYDSWGQGTQVTVSS,low polyreactivity
5,QVQLVESGGGLVQAGGSLRLTCAASGITFGVYAMGGYRQAPGKERELVAAITRGGRTYYADSVKGRFTISRDNAKNTVYLQMNSLKPVDTAVYYCAAGFWWSSYGYWGQGTQVTVSS,high polyreactivity
6,QVQLVESGGGLVQAGGSLRLTCAASGITFTIYAMGWYRLATGKERELVAAISWSGTSTYYADSVKGRFTISRDNAKNTVYLKMNSLKQEDTAVYYCAADYTTSQGDSELDYWGQGTQVTVSS,low polyreactivity
7,QVQLVESGGGLVQAGGSLRLTCAASGIYFTDYAMGWYRQAPGKERELVAAISGIGSTTYYADSVKGRFTISRDNAKNTVYLQMNSLKPEDTAVYYCNALLAYTYWYDYWGQGTQVSVSS,high polyreactivity
8,QVQLVESGGGLVQAGGSLRLTCAASGLIFGVYAMGWYRQAPGKEMELVAGISWRGSSTYYADSVKGRFTISRDYAKNTVYLQMNSLIPEDTAVYYCADVRRPSRHAYGGTAVYYWGQGTQVTVSS,high polyreactivity
9,QVQLVESGGGLVQAGGSLRLTCAASGLTFEYYAMGWYRQAPGKERELVARISKSGVGTNYADSVKGRFTISRDHAKNTVYLQMNSLKPEDNAVYSCAARKYHYGYGYWGQGTQVTVSS,high polyreactivity
10,QVQLVESGGGLVQAGGSLRLTCAASGNTFYPYAMGWYRQGPGKERELVAAITSSGGSTYYADSVKGRFTISRDNANNTVYLQMNSLKPEDTAVYYCAADPDWYSPFKYVYWGQGTQVTVSS,low polyreactivity
11,QVQLVESGGGLVQAGGSLRLTCAASGRIFAHYAMGWYRPAPGKERELVAAISSGGSTYYADSVKGRFTISRDNAKNTVYLLMNSLKPEDTAVYYCNKRPVRRKYDYWGQGTQVTVSS,low polyreactivity
12,QVQLVESGGGLVQAGGSLRLTCAASGRIFAYYAMGWSRQAPGKERELVAAISSGGTTNYADSVKGRFTISRDNAKNTVYLQLTSLKPEDTAVYYCNADGWRRSRQYYYWGQGTQVTVSS,low polyreactivity
13,QVQLVESGGGLVQAGGSLRLTCAASGRIFGLYAMGWSRQAPGKERELVAAISVISTGTYYADSVKGRFTISRDNAKNTVYLQMNSLKPEDTAVYYCNADSGQYTPPESDYWGQGTQVTVSS,low polyreactivity
14,QVQLVESGGGLVQAGGSLRLTCAASGRIFGRYAMGWYRQAPAKERELVATITYSGGTTYYADSVKGRFTISRDNAKNTVYLQMNSLKPEDTAVYYCNARSGRQLARYGYWGQGTQVTVSS,high polyreactivity
15,QVQLVESGGGLVQAGGSLRLTCAASGRIFGWYAMGWYRQAPGKEREFVAAITVTGGSTYYADSVKGRFTISRDNAKNTVYLQMNSLKPEDTAVYYCAADRWYTRTGFDYWGQGTQVTVSS,low polyreactivity
16,QVQLVESGGGLVQAGGSLRLTCAASGRIFIGNAMGWYRQAPGKERELVAAISSGGSTDYADSVKGRFTISRDNAKNTVYLQMNSLKPEDTAVYYCNADYEGYYDYGYWGQGTQVTVSS,low polyreactivity
17,QVQLVESGGGLVQAGGSLRLTCAASGRIFIYYAMGWYRQAPGKERELVAAISWGGGRTYYADSVKGRFTISRDNAKNTVYLQINSLKPEDTAVYYCAAGVYTGQHEYDYWGQGTQVTVSS,low polyreactivity
18,QVQLVESGGGLVQAGGSLRLTCAASGRIFRKYAMGWYRQAPGKERELVAAISNGGSTNYADSVKGRFTISRDNAKNTVYLQMNSLKPEDTAVYYCAASYRIYRGDSTGFGYWGQGTQVTVSS,high polyreactivity
19,QVQLVESGGGLVQAGGSLRLTCAASGRIFSRNTMGWYRQAPGKERELVATISWSGSRTYYADSVKGRFTISRDNAKNTVYLQMNSLKPEDTAVYYCAAVVPLSRSYDYYYWGQGTQVTVSS,high polyreactivity
20,QVQLVESGGGLVQAGGSLRLTCAASGRIFTVYAMGWYRQAPGKERELVAAIDFSDGTTYYADSVKGRFTISRDNAKNTVYLQMNSLKPEDTAVYYCAAEGGSALDDDYWGQGTQVTVSS,high polyreactivity
21,QVQLVESGGGLVQAGGSLRLTCAASGRIFYKYVMGWYRQAPGKERELVATITSGGSTYYADSVKGRFTISRDNAKNTVYLHMNSLKPEDTAVYYCAARKYYSRAYDYWGQGTQVTVSS,high polyreactivity
